Experiment: soluble on expression in E. coli; label from the status in PepcDB or PDB records

Sequence | soluble on expression in E. coli
MEKIFKVTSDSGIHARPATLLVNTASKFGSDINLEYNGKNVNLKSIMGVMSLGIQQNAEIKITANGDDAAQALAAIEETMKNEGLGE | not soluble
MAHHHHHHMKQVKAAFEANKRVYESVLLTFKGVDGYDVYNCSVPFSYKGKTHIYGRVEKRDIWAASHVRLFEETGKDEFTAVPELSWELEDPYIAKINNEMIFGGTRVRKNGNAILSYYGYFYRGTPDELTYFTRGPGCMKDIRVLQLQDGRLGVFSRPRVGRKASIGFVILNSIDELGAEVIAKAPPLDILSENAWGGVNQAYLLSSGKVGCIGHYSYEDTNEKQQPQSVYVNYAFVLDPQSRAITGAKIIGTKSCYPPCEPKVPLLADCVFASGIVMRSDGKVDLYSGVGDSHEGRITIDYPFKGHGTIIGDLHFPMASSL | soluble
MSLKLLFFDTETTGVKPGSICQLSYILVDTSTKPQKTIGKNIFFTVDEMEPEAERIHGFSLEKLYELSEGMYFEDLYADFINDFLEADFIIGHNVQFDIKFLKHELLGLGEFFEPNNVFCTMKYYKDICKILRPTGDYKNPKLEEVIKHLNITDSEISETANKYFQGSGNYHDARFDTAATYLTVINGIKKGLIPRNYFTKLLEAEGHHHHHH | soluble
MGSDKIHHHHHHMVVKIGLLGFGTVASGVPFLLEENQEKIEKAAHDSIEVAKVLVKDEAEKDRLLAAGHDYHFVTNIDDILADEDIAIVVELMGRIEPAKTFITHALEAGKHIVTANKDLLAVHGSELRALAEEKGLALYYEAAVAGGIPILRTLVNSLAADKVTRILGVLNGTSNFMLTKMVDEGWTYEKALQTAQELGYAESDPTNDVEGIDAAYKAVILSQFAFGMTVDFEHVAHKGISNITPEDVAVAQELGYVIKLVGDIQETTSGIAAEVSPTFLPKNHPLASVNGVMNAVFVESIGIGQSMYYGPGAGQKPTATSVMADIIRIVRRLKDNTIGKAFNEYSRSLQLAAPSDVKSEYYFSIDAPDKNGKMLRLAEIFNSEEISFKQILQQAADGETARLVIVTHEMSKTQLENVTDKLSKETDFTVLNTFKVLGE | not soluble
MGSDKIHHHHHHMHHSHHLEIYEKLREKLNKAPIGLPKTVSGVEKELLSVLFDEEEAKIAVHMPFIRFTAEQLAERTGKSLEYVEKILNEMAKKGTVWKGEKDGQTYYRLFPVIVGFAETPFWPGPGKDPRQEKLARLWSQYRKEGFLDEIGDREHPIMRALPERDTISEKSEILPYEDAVKLVKERDYIAVGYCPCRVMARLVGEGCRHSIENCIHMGSVGKYMVEHGLGRRISADEAIEILRQSNREGLVHLTERSKHVATICNCCSDCCVFFKAVHEAKHPNTIAHSSYLATVDTSRCIACGICMLRCPMKAIKAKINREPASVDAEKCLGCGVCVPTCPMEAIELVERDELLELPDGMTYVQELLADKGRDPSGLF | not soluble
IPKNTGGVLNSSVLDDAFSFITSYFDIEYGGLGFGAKFPHPFVDLLFLNYSATRGDDLGKKLGLFTLRKMYYGGIFDQVGGGFHRYTVDREWKLPHFEKLLIDNAELIYDYFTYYIATNDIEILDALRNSVDFVLRELYIDGKGFANSLDADSEGMEGKYYTWTEDELKDSLGNDY | not soluble
MTSACGFHLRGDYLLPDEVHEISLTSFDQYSSLTRDVQKQLRMNGIRQVAPTTVTPSLDLISESLNERTLSLYQNSRAAEKELTYNVSYSVLIPGHDLKTYTTTVNRNYLDNPLTALAKSVERDMIEEEMRAQAAEQILRQMARLKADDAPVETSDVITHDDETESKVTTKEVIKSMSTTAETTQLEHHHHHH | soluble
MAHHHHHHMTVKVASEVSLLPYGEHQGSFRGVVACSNRDDGYFSGENNYVDTSIYTGFRYQCVEYARRFLLLTTGCVFANCGRASEIYAMDHITHVETGAQYTLHRHHNDGTATQKPAPGDIIIYPYHPELTPWGHVGVISFVDDNRVGIAEQNHYFGPFTSPSESYLDGERCVARYAMLTLDEATKTWRIDEPGAMPSAVGWLSYPDAPTREQIHAPFTPLPCAIKVRSTPFDQDDHPFLTHYHLHKIFDIPSGCVRHAYGMRNGTAETLVGATSAAARVLRFTLHLLFHRGRLGPAFRALPTNPLNATLPEGAGASTEACREVDALFKVLAEEDVVNATETTPDRLRQAVATYFDIPVEWVMAMERDFAKGETHMAAVVSFYPNIATDSAALEAFRAARKRSGTWAAPAVGTVPLTTAKASTPVAEEPLTLSYPATVEELPLKNPHDEAWHLATVNFGNARVMTELSQLNKVKQDLTETIALMTPSMRPFISTQYRMDFAGYLKVVEAVYGPRTGFTIVVSDDQPMDGLLRELVSTVQNLCEHVEYPVRIVNEKDLTFVNGKLHATPSAISPEAGSHMTNIAPSGAYDVNFVYALCEWPRILACREATHAALYRAAVDPASDVVFAKPLWSYLCSGAVNVSDDAERAHYSHSPRSPSVRFFDVCRRLYLLASPTQQPKTWDLEVSEYKDSCRRIHVDAETVPMHSPAHLNADSLMINLAGSCYMGHAGGTLSVESENTGIHVGHPAFLMFMFPAD | not soluble
MAHHHHHHMLHNGKKNPTQAVDDGNPRKSKHREVGSHCKGLDKKENINKSGEEHIKKVEGRENCEPHDIKRRGEIDKVLIQCEELQRKELEALKLIYVRDRELVIQNENDEKRDTIIHMQLNDENISDNVINLTFELPKDYPLKSFLLIDINVKNFTPDMNNYLNQEVYKDMPNYIAHENSILSIIYRINELVENIQNSKKTSVDHSYLSSEEREEYVEEGAFDPSEDQLIKDHVPFLYCSGMTYSHHRRVLARRLCYSHHILSLVKRTYIIKWAKDLKIGGYSKIGYPGIIICEGPKEEVDFYINSLNKLRWKHFDCRGMEDIILKEYEDLDDARVLPRTMYELDPKGMSTLSNICTECGLRDLFLTSMKIYHT | not soluble
MTLNLSVDEVLTTTRSVRKRLDFDKPVPRDVLMECLELALQAPTGSNSQGWQWVFVEDAAKKKAIADVYLANARGYLSGPAPEYPDGDTRGERMGRVRDSATYLAEHMHRAPVLLIPCLKGREDESAVGGVSFWASLFPAVWSFCLALRSRGLGSCWTTLHLLDNGEHKVADVLGIPYDEYSQGGLLPIAYTQGIDFRPAKRLPAESVTHWNGW | soluble
MSLRFIDKLYQANLGKLTAGISPAALGTAYYSWFAQLLQSPGSMLRLAYYPLLHANDYLSNLFKYDKPRDGKDVRFHTENWSYYPWRLWAEQFLQFEDWCLQASSKVPGIPLHVKRTVTFSTRQILDALSPSNFVLTNPDLLQETIRSNGQNLIRGTELAFQDFVEKITGSPPAGVENFIPGKQVAVTEGKVVYSNHLIELIQYTPQTEKVYKEGHHHHHH | soluble
MSLSQNSESGNYRKYTSRNPLMGIVVSGFMKDLSETIAPLEEVGSIIDIGCGEGFIINCLNRKDITGVDVSKKALNIAKQKNPGCNFCTGSIYDLSFKKSSFDLVIATEVLEHLENPERALREIKRISKKYCIFSVPNEPYFRTMNFLRGKNLTRLGNDIEHLQNWSTKEFVKLVGRHFNVVEVKRPFPWTMVLCEKEGHHHHHH | not soluble
MGKLFGTFGVRGIANEKITPEFAMKIGMAFGTLLKREGRKKPLVVVGRDTRVSGEMLKEALISGLLSVGCDVIDVGIAPTPAVQWATKHFNADGGAVITASHNPPEYNGIKLLEPNGMGLKKEREAIVEELFFKEDFDRAKWYEIGEVRREDIIKPYIEAIKSKVDVEAIKKRKPFVVVDTSNGAGSLTLPYLLRELGCKVITVNAQPDGYFPARNPEPNEENLKEFMEIVKALGADFGVAQDGDADRAVFIDENGRFIQGDKTFALVADAVLKEKGGGLLVTTVATSNLLDDIAKKHGAKVMRTKVGDLIVARALYENNGTIGGEENGGVIFPEHVLGRDGAMTVAKVVEIFAKSGKKFSELIDELPKYYQIKTKRHVEGDRHAIVNKVAEMARERGYTVDTTDGAKIIFEDGWVLVRASGTEPIIRIFSEAKSKEKAQEYLNLGIELLEKALS | soluble
MSLTKRWFNVGKIVNTHGIKGEVRVISKTDFAEERYKPGNTLYLFMDGRNEPVEVTVNTHRLHKQFHLLQFKEGQNLNEVEELKNAIIKVPEEELGELNEGEFYFHEIIGCEVFTEEGELIGKVKEILTPGANDVWVIGRKGKKDALIPYIESVVKHIDVREKKIEIELMEGLIDEEGGSHHHHHH | soluble
MGSDKIHHHHHHMDYELLKTFICLAKLKNFTKTAEQLHVVQSTITSRIKHLEHTIGETLFIRTNKKVLLTGAGEIFLPYAKQLLSIQETAISRLHTLELFKDTLNIGAVHSIYDCHVQNMILKYMQRNKKIAIKITIEHSEELIQMLHDNQLDVTFTYLDIKSSQFICNPFYTDKIILVTGSQNNYNERGITNDELRSLPLLSSAILTEEFQEWFYSIFPRNYIYPLDININSNIVTFLKDGIGFSFMPESAAKNFIEEGSLIEVKLLESTPPSMKSYVLLNKQRINSEAVHSWLNEFPTLTST | not soluble
LTTRDFDRTGRPLRFTELGFGSSPLGNLYRAISEEEAQALLERAWAGGIRYFDTAPLYGYGLAEERLGRFLAGHPRSDYVLSTKVGRLLRPVEPGEARDGLGKFFEVPERKERFDYGYDGVMRSLEASLDRLGLDRVDVLYAHDLDLFTHGSQEALEARLAEFMAGGYRALVELRDQGVISAFGAGVNEWQPCQWLAERGEFDLFLLAGRYTLLEQEALESFLPLAEERGIGIVIGGPYNSGVLATGPKPGSFYDYRLAPQAVLDRVAQIHTICERWGVRMFEAAFQFPLRHPAVLSVIPGPQSVGEVMENRIAADAELPPGLWEDLKVAGLLRPD | soluble
MRPVYFLSDFGLEDPYVAVVKAVLAERAPGPAVVDLAHALPPQDLRRAAYALFEALPYLPEGAVVLAVVDPGVGTARRAVAALGRWTYVGPDNGLFTLAWLLDPPRRAFLLEPPRPRPKAALPGWAPGEATFHGRDVFAPAAAHLALGLPPEGLGPEVPVETLARLPLALTEGPEGEVLTFDRFGNAITTLLRAPVGGFVEVGGRRVPVRRTFGEVPEGAPVAYLGSAGLLEVAVNRGSAREALGLKEGMPVRLL | soluble
SLIENSHVKKDDIWPSGGQMTVKDLTAKYTEGGNAILENISFSISPGQRVGLLGRTGSGKSTLLSAFLRLLNTEGEIQIDGVSWDSITLQQWRKAFGVIPQKVFIFSGTFRKNLDPYEQWSDQEIWKVADEVGLRSVIEQFPGKLDFVLVDGGCVLSHGHKQLMCLARSVLSKAKILLLDQPSAHLDPVTYQIIRRTLKQAFADCTVILCEHRIEAMLECQQFLVIEENKVRQYDSIQKLLNERSLFRQAISPSDRVKLFPHRNSSKCKSKPQIAALKEETEEEVQDTRLENLYFQGDKDCEMKRTTLDSPLGKLELSGCEQGLHEIKLLGKGTSAADAVEVPAPAAVLGGPEPLMQATAWLNAYFHQPEAIEEFPVPALHHPVFQQESFTRQVLWKLLKVVKFGEVISYQQLAALAGNPAATAAVKTALSGNPVPILIPCHRVVSSSGAVGGYEGGLAVKEWLLAHEGHRLGKPGLG | soluble
MGHHHHHHSHCSSCSTPLYDQGGPVEILPFLYLGSAYHASRKDMLDALGITALINVSANCPNHFEGHYQYKSIPVEDNHKADISSWFNEAIDFIDSIKNAGGRVFVHCQAGISRSATICLAYLMRTNRVKLDEAFEFVKQRRSIISPNFSFMGQLLQFESQVLAPHCSAEAGSPAMAVLDRGTSTTTVFNFPVSIPVHSTNSALSYLQSPITTSPSC | not soluble
MKFGKEIAKKNQIIYRYIILKIQSFEWPANTRIFSERQLEIRFNSSRSQIRSVLATLLNKNIIRYTKNTPGYFVCKDVGFSFFHKTQDNLKVKYAKLSTLIKKLLSQDDASVFANIDSTVHLDKFKGIEAKFFDENKKHFLNVCFFAKDDILNILDENNLQQQFFREFAYNGIAIEKRHCVTSVDKESGCLVMYDMYYDDNDNFVVASKSNFLNPELKVINA | soluble

From the DeepSol protein solubility set
